A short description of this data set: soluble fraction after stress (log2 fold change); higher = more stays soluble; pooled small domains, quantitative proteomics. Particulars: stress: 50 degC. An outline of the steps: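 Pooled custom libraries of small protein domains were measured in a high-throughput format, with quantitative proteomics as the read-out. Each library was stressed at 50°C. Aggregation propensity is given as the base-two logarithm of the fold change in how much of each protein stays soluble after the stress. Higher values mean a larger share of the protein remains in solution.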
As to “HMTMTKELGQRIRAERTARKMTQEELAERADLHPTYIGQVERGEKSLTIASLEKIVEGLGISFSDLFEN”, the “soluble fraction (log2)” value is -0.0406.

Turning to “HMDSFEEGTYRKNQRGFGFVKIENQEDEIFISKENSLNALNGDRVIVEIIEDKDRTKRAEGKIKKILKHE”, the “soluble fraction (log2)” value was found to be 0.201.

Take “HMTESLVITVDPALHGLRLDRGLADALPDRSRSEVQRWIKEGRVQLHGAPAKPSLKLAAGDIVTIALPEE”: the “soluble fraction (log2)” value came to 0.393.

As to “HMKPRISMITLGVKDLNKSIEFYGGGLGFPRKKTEPEIAIFKLNGSWLSLYNRGLLAEDANVS”, the “soluble fraction (log2)” value is -0.0946.

Take “HMLRTEYLTVNYAKASEVAELVTASGFLSSRGSITVDERTNTLLLQDTATNIDEVRFMLEQLD”: the “soluble fraction (log2)” value was -0.443.

For the sequence “HMSNIIIYPNPTNDGLIHIKGSKFPFNYALYNLSGKLIETGKKNQIQLNDRGVYLLKIQTEGQTYFKKII”, the “soluble fraction (log2)” value is 0.272.

As to “HMTILKEGMSGPEVERLQDALKRHGFDPGRVDGQFGPGTEAAILAFQKSEGLRADGVAGPKTQQALGLE”, the “soluble fraction (log2)” value was found to be 0.131.

Regarding “HMKRYLFEEVLAFLKHNDGKSFNYKQLGAAMEIDNESDRFALLETLEELKHQGFVIETDIGKYAAKE”, the “soluble fraction (log2)” value was -0.324.

In the case of “HMLNPLLLPFVEAEDFQVKLEILAAMEGKVGEEDLDILYEALDLPKMTGNIEEQIHSIKQYIEMRK”, the “soluble fraction (log2)” value is -1.15.

Consider “HMPGLSQAEAQSLLIAYLAQQGRTLELIPLGQSGDVWRFSGRESDGTVVSFFMVSRTDGTISEVPVPP”, for which the “soluble fraction (log2)” value was -0.62.

Turning to “HMEQVTMSNFLDKWGTSTKSPNAWYTSLSPMQKAEAKLLKEESGLTWNKWYEKNIYVGDGTN”, the “soluble fraction (log2)” value was found to be 0.249.

For “HMTASVTDAMFELIDELPKLGKTSFRQLTADLVDRLQVVVTFLAVLELYKQGHVELDQSERFGDITVVWTG”, the “soluble fraction (log2)” value is -0.0255.

“HMPSKKHARWIELEARKFMADNEDAVSDLHELRTRAANFAALKTSTLPVDQHRAIVAGFVARVNELGRRI”: the “soluble fraction (log2)” value is -0.631.

For “HMPIPIESEISRSPGQSIYAFVQQHYGRSGRSPADMRALVGLILRLNRQIRTPLLIPFGLVVVRPT”, the “soluble fraction (log2)” value was -0.0619.

Take “HMNHYTEEYILKRMKDFFTTHAYITRRDIESLFGFRRSYATKWLKHFRESGVLKQSGPVNSAVYLL”: the “soluble fraction (log2)” value is -2.83.

Regarding “HMAKTGMDALVGRRVVLTKAIAGEGEGLVAVDGDVWRATSPAGSAIPKGTEVRITGYRSIVLEVEPI”, the “soluble fraction (log2)” value is -0.184.

In the case of “HMGEWNSVFSVPSSVVDKHLKTASSVYVKVLLVILRNAGNRISDQQISEQLSVPVDEVQEAIRYWNAAGIF”, the “soluble fraction (log2)” value was -0.247.

Consider “HMSAIEIDAEKILNYLTDRGGKMPYGDTTAPEVIKDKFNISKAAFKRALGFLLRSNKIEQIDGWTYI”, for which the “soluble fraction (log2)” value was -0.317.

“HMDKEIKILKEKRLDDVQQAIRELSPQKRRVVEMKLYHNSTNQEVADKLAISVNTVKSLYTSALHDLRRIL”: the “soluble fraction (log2)” value is -0.139.

Turning to “HMADVPSTIFEAYRILGLNPEAPPVAVKKVVDALRMSWHPDHARSEPDRRHREERIKQINAAWDLLKGV”, the “soluble fraction (log2)” value was 0.148.

“HMQISDTSELEAVVQDILKANMDVVAKIKAGKTNSANFLMGQVMKLTKGRAKPDTVLQLILDAVKQ”: the “soluble fraction (log2)” value was -0.301.

On to “HMNLVGGKINSLMTTKNVTIQDLSERSGLTVSQIELLLSGDKVPSLAVLIKIARGLGVRVGTFL”, for which the “soluble fraction (log2)” value is -1.3.

Take “HMGGLAVQLVHAMTDQIRSGRLKAGDKLPTEAAIMKDFGVSRTVVREAISRLQASGWVDTRHGIGTFVLHQ”: the “soluble fraction (log2)” value was -1.3.

With “HMNSHLEEGRHGLQIGDPGIVRARIESDPEGETDMPVVVIDGRNISWNEFGRMVATYTGFQFKLEM”, the “soluble fraction (log2)” value is -0.515.

Take “HMAAAKDVMDWQNAIRGLTDAKGKPYSPTYLKTVHNQLSALFNHAVRYYGLQVNPAAKAGNMGVEE”: the “soluble fraction (log2)” value is -0.0939.

Consider “HMGAWQQTGFFRNRENAESLAEVLRQRGFSPVVREDTRPSGTVYYAVLVPDDGTTAARLKDAGIDSYPV”, for which the “soluble fraction (log2)” value was 0.0695.

On to “HMLIADSDALRSQIESILNGNPNEVASFRAGKESLMGWFVGQVMRSTGGKADPKRTRELLQELLTK”, for which the “soluble fraction (log2)” value is -0.102.

Turning to “HMQKTPFEIMTIYKDQILEMLGKDLTATEISIVLKKKGEKVHPREIRKFQLQHYEEVQDMRKKWRE”, the “soluble fraction (log2)” value was -1.16.

Take “HMDIGNKIKELRTEQKMTQSDLAERLGVTKSSISSYENGSRLPSYDILLKIARIFKVSTDILLG”: the “soluble fraction (log2)” value was found to be 0.514.

Regarding “HMTDMYLTYQELRHLGVSQNLISMWKSRKSIDFHMLGGTLYVRYMSIPEQTRSKLALQNVERVYNSRE”, the “soluble fraction (log2)” value was -2.55.

As to “HMTEPKRIVDHWQPSDDVYDILRMSHIDLDFARSLLPEFIVYWKDSSQTHTSWNSKFLQHAKYHWAKRHQL”, the “soluble fraction (log2)” value is -2.08.

“HMDKEVLYVTVNDKKVKLDGKNHIFIDIFNYIDFDIKKPNGSIVLKLNGKNAGYMDEIKDGDKIEIYWDK”: the “soluble fraction (log2)” value amounted to 0.0969.

Turning to “HMAIQGVRLYERTLETGDPWLDRPLSTLSTGTRLIILVRRGGDVLIPKGDTVLLAGDTLVINDS”, the “soluble fraction (log2)” value was -3.24.

With “HMSHGSIYFSGKTGLKGSVDINGTVNSINKKIFLKPGNYNFLIKADGYKNLKGSFQISKGDKKFVELVLIP”, the “soluble fraction (log2)” value is -1.61.

Regarding “HMVPLSMLTEGQIFRGQVLDITSQGIKIQLNPEQILFARLGEQVELNIGQQMAFQVRENKGDQLIIHPMQN”, the “soluble fraction (log2)” value was 0.0382.

Turning to “HMDDMVLEIGPGIGTMTQYLAEAAGKVVAVEIDRNLLPILQETLADYDNVKVIHADVLSLDLEKLVQEE”, the “soluble fraction (log2)” value was -0.000883.

Regarding “HMAPEPFIVQITASSLNVRKGPGTSYAVAQTVSKGQVFTIVQQQGGWGKLKSGAGWISLKYTAR”, the “soluble fraction (log2)” value is -1.36.

With “HMSAERFDFRIGPELAGKRFDQALAEALPQFSRSRLSTWIKDGRATLNGATMRPKDSVHAGDTVVVNAE”, the “soluble fraction (log2)” value is 0.126.

In the case of “HMPSEDELAERLRGAIRQGDILNEGRMPPERALAEHFGVSRARLRLALGLLQEDGTIYRRHGQGTFAT”, the “soluble fraction (log2)” value is -0.132.

With “HMIYGNGVTDLKDLANGATIIIPADDSNETRALFLLQQEGLIKLPDDADAAKGVSTLDIVDGGGWVTSM”, the “soluble fraction (log2)” value worked out at 0.0431.

Consider “HMLNWINSDVLERFNSLTKEKQKAIVADTETRLNGLSQARFKVAKSSSNERLIAEFAIEINEAIMRAAAL”, for which the “soluble fraction (log2)” value is -1.49.

With “HMNSHQNELDNALTEAHTASRRLLEGTDEYLDLSSQPAYIRRLQHLLAQKYNLGSLSSGVEPNRHIRLLQ”, the “soluble fraction (log2)” value is -0.143.

For the sequence “HMDLHSQVFESYERKIREVLREGPLTFEEILHAFALKRHETVAQVITYLMDEGKMSDSGDGKLIYSG”, the “soluble fraction (log2)” value was -0.558.

Regarding “HMDELVYVPNITGKTVEEARTELQKRDLGLNIAGHQFSDEFGKGRIISQDPAAGSRLKVNRSISVIVSSGQ”, the “soluble fraction (log2)” value turned out to be 0.206.

Take “HMDPTLFRLNILEGLGLEKKNLTSEEQEQLRFLYEHFSMKEILMTIDYIKKLNLEKSIVNLYRLMQHP”: the “soluble fraction (log2)” value is -0.0621.

Take “HMRDSLVGLEGVVVREVDDETLAGKVQIGSMEWSARSESGRIPAGRRVVVLRAEGVHIVVKEV”: the “soluble fraction (log2)” value was -0.205.

Take “HMQHRSRALHLQEELVRRYYDQAIAPFMIFWEMKANVTLDQLKELRAVVSPSLNEHPYTKQLDEYIRLAE”: the “soluble fraction (log2)” value is -0.505.

As to “HMRSPVDALSNRELQVLQMVGRGLSSRQVAEALHLSVKTVEAHRQRIKGKLGLRTGAQLVQFAANWVTG”, the “soluble fraction (log2)” value was -1.27.

As to “HMKKPLEYIDVDKREDFPPVPNGMRYIHFYGGTKNYRAYIAPEDISRADFMEQYPEYVPEHN”, the “soluble fraction (log2)” value is 0.184.

Regarding “HMDKMVAVPNVRGIEASEAEATLIAQGLFVEVEKSDSEDANVAYGEVYAQTPKAGNRVEEGTTITIKVRTE”, the “soluble fraction (log2)” value is 0.0555.

Take “HMRLARPLTPTEERVLRLLASDMSNAKIGEVLGIRLPTVKSHVSHIMQKLGVTSRAKARTAAQQLGI”: the “soluble fraction (log2)” value was -0.887.

For the sequence “HMKETKVIHVHLIFKKTSRFFGSISAIYSEFTAEEIGITEETLRHKGLSDGVSFATKKAIIQQGVLIR”, the “soluble fraction (log2)” value was -1.67.

As to “HMYDEKTLRKAVLDYVRDNDDGRLDLMKIDSYLTSRYGNIDYAALGYNRLSMFISSFPELRRNSNYVTLRK”, the “soluble fraction (log2)” value was -0.164.

As to “HMGTFIATVEANSLDIYKSMSSNETIGKANKGEVFQILEDMGSGYARVSYNDVEGYLSIRDGDATIEE”, the “soluble fraction (log2)” value is -0.356.

As for “HMTTKGGLVRDTVLNEFRDSEFTRREVELVLNGVASERTIRGALSEMVERGELTQVNFGISTRYRLNQ”, the “soluble fraction (log2)” value is -0.385.

Take “HMVPAMGSLTLIKGGVNLRNAPGGLTIAQLDRGLVLSYTKFVQKDGYTWYLVNSPKGTGYVRSDVVQLGS”: the “soluble fraction (log2)” value was -0.251.

As to “HMGKIFSELTPREIEVVRLIADGLSNQQIAEELFLSNGTVRNHISTILEKTGLEHRTQIAVMWLR”, the “soluble fraction (log2)” value was -0.146.

“HMLPSWLPTDAWEAFLEARVAMKARPTERAKGLLLGELSKLVSQGQDARAVLEQSVQRGWRGLFPVK”: the “soluble fraction (log2)” value is -1.52.

Turning to “HMTLSDDEFEIIKSLIIDTLKEEALTINALTKKINHKEAKTIQVIRFLLDNGLVAENNLMKLFVI”, the “soluble fraction (log2)” value was -0.821.

Turning to “HMNKNIKIPNISNLSREDAESVLKESGISVSTEIKEVESDTIEKGKVVKTEPSIGSTVKQGRTITIYISSG”, the “soluble fraction (log2)” value came out at 0.0574.

In the case of “HMENDYTQAQFVQDLDSGVVREVIIIPNREAPTGYARVVFGDVVRELYATDIREVEALAREHGYEPTVED”, the “soluble fraction (log2)” value worked out at 0.209.

On to “HMSSLQFVTLTLMEGHAWVGREIQELLMPPQMRIALIRRGDSQVIPKGSTILESADELILSAIEYQG”, for which the “soluble fraction (log2)” value is -4.14.

For “HMIMTHSALLEKDGFDIVKVHFERPNDDGFDFLDMTLPGEIVYKSFGFSEDEILKLKRYAKNNSSLIWDF”, the “soluble fraction (log2)” value was -2.31.

“HMVSEDELLARIALLPYPQAKILLEERLSHDPANAKVRQLYLELAKKSGDHTEVTRHNSLLY”: the “soluble fraction (log2)” value was -0.104.

For the sequence “HMAEVAFEEQNIEQISNLLLRIQAIFAELMTALDKEKGGEIADNLERLYVFFLEKLGDANVRKDPAP”, the “soluble fraction (log2)” value was 0.00759.

With “HMYSYSFTSSEGSTFEGQLIRVEESQVTILRYADQKEFSIPKSRFIEADQVYFERWAIENPQL”, the “soluble fraction (log2)” value is -4.33.

As for “HMNPLSELSFEERRELFLEAAVRLFEEKGYKNTSVEDIAGELGFTKKVFYYYWKNKREIVQEIHDRGMA”, the “soluble fraction (log2)” value is -0.479.

For the sequence “HMHGSTAVVPQIKNMPYSEASVRLGANGLAIEINDSVYDRDMPPGTVIESWPKAGAVVKQGRQVYVTVTA”, the “soluble fraction (log2)” value is -0.221.

Values taken from the domain aggregation screens of Martell et al. (2025).
